From patent publication US20150351390A1, “COMPOSITIONS AND METHODS FOR AUXIN-ANALOG CONJUGATION” (PIONEER HI-BRED INTERNATIONAL, INC., priority 2012, published 2015)

B1: AtGH3-17: GH3 protein, accession Q9FZ87 (protein, listed as Arabidopsis thaliana)
chain: MIPSYDPNDTEAGLKLLEDLTTNAEAIQQQVLHQILSQNSGTQYLRAFLDGEADKNQQSFKNKVPVVNYDDVKPFIQRIADGESSDIVSAQPITELLTSSGTSAGKPKLMPSTAEELERKTFFYSMLVPIMNKYVDGLDEGKGMYLLFIKPEIKTPSGLMARPVLTSYYKSQHFRNRPFNKYNVYTSPDQTILCQDSKQSMYCQLLCGLVQRSHVLRVGAVFASAFLRAVKFLEDHYKELCADIRTGTVTSWITDSSCRDSVLSILNGPNQELADEIESECAEKSWEGILRRIWPKAKYVEVIVTGSMAQYIPTLEFYSGGLPLVSTMYASSECYFGINLNPLCDPADVSYTLLPNMAYFEFLPVDDKSHEEIHFATHSNTDDDDDALKEDLIVNLVNVEVGQYYEIVITTFTGLYRYRVGDILKVTGFHNKAPQFRFVQRRNVVLSIDTDKTSEEDLLNAVTQAKLNHLQHPSSLLLTEYTSYADTSSIPGHYVLFWELKPRHSNDPPKLDDKTMEDCCSEVEDCLDYVYRRCRNRDKSIGPLEIRVVSLGTFDSLMDFCVSQGSSLNQYKTPRCVKSGGALEILDSRVIGRFFSKRVPQWEPLGLDS
B2: SmXP_002981880: GH3 protein, accession XP_002981880 (protein, listed as Selaginella moellendorffii)
chain: MAASAIAEFEDACKNAASIQEELLLGILRKNACCEYLQKYGSPLTVAAFKSQVPVIGYDDIRSDLERIAGGDRGQILCHDPITSFFTSSGTSSGKNKNIPATYENTVSVVKVLESSYAYKTNYFDLGKGRSVSLLYFKDLHATKSGLVFGPVTAHGIRSTRFRQVWRSSRTTPYEVLVAASDFRELTYCHLLCALLQRHEVEQVECMYAYSICEALRLFQNEYWEELCNDIRTASLSKTKVMDPKLRKAFERAGVFRSKCGNAMEADKIFKICSNESWSGILPLLFPKAKLVSAVVTGAMTHYVPTLSFYAGDQLPIVGQGFFSSEGGIGINIDPLSPPEDVIYTVTPRSLYYEFLPLGATEALSMHEVVIGELYEILVTNFAGLYRCRMGDVVQITSFFHGAPQMAYHHRKNAVMCINNETVDEQMLQNVVNKVSKDAGVEVLDFMIYGDPAAVPPSYTIFWELGNAKDYSKTQVLEQCCANVLKSFNPEHTRKGTDGLIDSFELVIVKKGTFERLMEEAVKNGASPAQYKTPRCVASSRILEALNSGRVHSYKSSAMSKVN
B3: AtGH3-3: GH3 protein, accession O22190 (protein, listed as Arabidopsis thaliana)
chain: MTVDSALRSPMMHSPSTKDVKALRFIEEMTRNVDFVQKKVIREILSRNSDTEYLKRFGLKGFTDRKTFKTKVPVVIYDDLKPEIQRIANGDRSMILSSYPITEFLTSSGTSAGERKLMPTIDEDMDRRQLLYSLLMPVMNLYVPGLDKGKALYFLFVKTESKTPGGLPARPVLTSYYKSEQFKRRPNDPYNVYTSPNEAILCPDSSQSMYTQMLCGLLMRHEVLRLGAVFASGLLRAIGFLQTNWKELADDISTGTLSSRISDPAIKESMSKILTKPDQELADFITSVCGQDNSWEGIITKIWPNTKYLDVIVTGAMAQYIPMLEYYSGGLPMACTMYASSESYFGINLKPMCKPSEVSYTIMPNMAYFEFLPHHEVPTEKSELVELADVEVGKEYELVITTYAGLNRYRVGDILQVTGFYNSAPQFKFVRRKNVLLSIESDKTDEAELQSAVENASLLLGEQGTRVIEYTSYAETKTIPGHYVIYWELLVKDQTNPPNDEVMARCCLEMEESLNSVYRQSRVADKSIGPLEIRVVKNGTFEELMDYAISRGASINQYKVPRCVSFTPIMELLDSRVVSTHFSPALPHWSPERRR
B4: OsGH3-10: GH3 protein, accession Q6ZLA7 (protein, listed as Oryza sativa)
chain: MAAKGISTIGAASRSLSSSLMAAAKEPDVENLRLIEELTSNVDAVQERVLAEILGRNADAEYLDKCGLDASDTDRATFRAKVPVASYDDLKPYVKRIANGDRSPILSTHPIIEFFTSSGTSAGERKLMPIVTDEMARREVLSSLATSVLNVYVPGLHTGKGLYFLFARSETKTPGGLTAQPALTSVYKSEHFKRAYAYTSPMAAILCEDASQSMYAQMLCGLCQRHDVLRVGAVFAAALVRAIRFLQLNWAQLAADIETGELNPRVTDPSDRECSRGDWTGIVTRLWPKTKCLNVVVTGVMAQYIPTLQYYSGGLPIVSGMYASSECFFGLNLRPLCGPSEVSYTIMPNTAYFEFLPVGEAVDASNLVELARVEDGREYEVVVTTYAGLNRYRVGDVLCVTGFHNAAPQFRFVRRQSVLLSIEADKTDEAELQRAVERASSALLRPRGASIVEYTSRACTERVPGHFSPALPHWTLAP
B5: SbEES16535: GH3 protein, accession EES16535 (protein)
chain: MAHTPAMENSYVQVHHLATSMAIHTHKPFLAPPKHVHLAFHSPTSAPSRLLATTRSRPGLSQPAAMMAETDADKLRFIEEVTADVAAVQERVLAEILSRNADAEYLSTRCGGATDRATFRAKVPMVTYEDLQPYILRIAHGDRSPILSGSGYPVSELLTSSGAGDRKLIPVVDDDHDRHHRLHSLVGAVVNQYVPGLDKGSGLYFLFVKSETTTPGGLPARTILTRIFTSDGVWKLPYNPRRGLTSPAAAVVCEDTFQSMYTQMLCGLCHRHSVLRVGAAFASGVLRAIRFFQRNWPQLAADIDAGTITDRVTDHVLRQALAGVLTQPDPDLARVVRSEGSKADDGADMAGIIARLWPNTKYVHAVATGSMAHYVPALNHYSGGLPIVSTAYFSSECSVGINLRPMCDPSEVSYTVMPNMAYFEFLPTDDDDATASATSQLVELAGVEVGREYELVVTTYSGLCRYRVGDVLRVTGFHNTAPQLRFVRRRNAVLSVESDKTDEVELQRAVDRASAALLRPLGAAVADYTARTCAETVPGHYVVYWELQLPLGAADVVVDGGDVLDRCCLEMEEALSSVYRQSRVADGTVGPLEIRVVRPGTFEELADHAVARGASVGQYKVPRCVTAPPDIELLDSRVVSNHFSPALPKWVPG
modifications: Sorghum bicolor
B6: AlGH3-12: GH3 protein, accession XP_002871561 (protein, listed as Arabidopsis lyrata)
chain: MKPISDINESFEKQLKYLTSDVKQIQDNLLEEIITPNTKTEYLQRFLIGRFDKDLFKKNVPIVTYEDIKPYLDRVVNGESSDVISARPITGFLLSSGTSGGAQKMMPWNNKYLDNLTFIYDLRMQVITKHVKGVEEGKGMMFLFTKQESMTPSGLPARVATSSYFKSDYFKHRPSNWYYSYTSPDEVILCPNNTQSLYCHLLCGLVQRDEVVRTGSIFASVMVRAIEVLKNSWEELCSNIRSGHLSNWVTDLGCQSSVSLVLGGPRPELADTIEEICNQKSWKGIVKRLWPNTKYIETVVTGSMGQYVPMLNYYCNDLPLVSTTYGSSETTFGINLDPLCKPEDVSYTFMPNMSYFEFIPMDGDNNDVVDLEDVKLGCTYEPVVTNFAGLYRMRVGDIVLVTGFYNNAPQFKFVRRENVVLSIDSDKTNEEDLFKAVSQAKLVLESSGLDLKDFTSYADTSTFPGHYVVYLEVDTKEGEEKKTAQFELDEEALSMCCLVMEESLDNVYKRCRFKDGSIGPLEIRVVRQGTFISLMDFFISQGASTGQYKTPRCIKSGKALQVLETCVVAKFFSS

Assay: LC-MS assay of GH3 conjugation of IAA with Asp or Glu
Type: biochemical
Details: IAA with Asp
Description: (§1) To detect and monitor the formation of acyl conjugates with 2,4-D or dicamba, a sensitive LC-MS method was developed using the respective amino acid conjugate standards. […] The reaction was performed at 30° C., 105 rpm, for 3 hours in buffer containing 20 mM Tris-HCl (pH 8.0), 5 mM MgCl2, 5 mM auxin (IAA, 2,4-D or dicamba), 5 mM ATP, 5 mM Asp or Glu, 1 mM DTT and 44 to 164 μg/mL purified GH3 protein in 100 μL reaction. After 3 hours of reaction, 400 μL 100% MeOH was added to the reaction mixture for protein precipitation. The supernatant was diluted 20× in water and then analyzed by LC-MS (AB Sciex 4000 QTrap coupled with Shimadzu Nexera UHPLC) using a Phenomenex Luna 3 μm Phenyl-Hexyl (00B-4256-Y0) column. The concentration of the conjugates was calculated based on the standards. Kinetic parameters were estimated by fitting initial velocity values to the Michaelis-Menten equation.
(§2) The GH3 superfamily conjugase activity analysis of IAA, 2,4-D or dicamba with Asp or Glu was done using LC-MS to analyze the final conjugate products as described in Example 1. Protein sequences of GH3 homologs (Table 3) were obtained from public databases (NCBI, http://www.ncbi.nlm.nih.gov/) by Blast analysis of AtGH3.17 protein sequence (accession # Q9FZ87). Coding sequences were designed for optimal expression in E. coli based on the protein sequences and synthesized. Synthesized coding sequences along with N-term his-tag coding sequences were cloned into a pET24a-based E. coli expression vector. The E. coli expression vectors were transformed into OverExpress C41(DE3) cells (Lucigen) for protein expression. Recombinant E. coli strains were inoculated into 5 ml LB media supplemented with 40 mg/L kanamycin and cultured overnight at 37° C. The overnight culture (0.5 mL) was inoculated into 50 mL LB medium plus 40 mg/L kanamycin and grown at 30° C. until OD600 reached 0.6. The cultures were induced with 0.2 mM IPTG at 16° C., 230 rpm overnight. Cells were harvested by centrifugation at 7,000 rpm for 10 mins. The cell pellet from 50 mL of cell culture was frozen and thawed twice and then lysed in 800 μL lysis buffer A (150 mM NaCl, 50 mM Tris-HCl pH 8.0, 5 mM MgCl2, 10% glycerol) plus 20 mM imidazole, 1 mM DTT, 0.2 mg/ml lysozyme, 1/200 protease inhibitor cocktail (EMD set3, EDTA free) and 1/2000 endonuclease. Lysate was then centrifuged at 13,000 rpm for 30 min at 4° C. Supernatant was loaded onto 200 μL Ni-NTA columns pre-equilibrated with buffer A with 20 mM imidazole at 4° C. Each column was then washed with (1) 2×800 μL of buffer A with 10 mM imidazole, (2) 2×800 μL of buffer A with 20 mM imidazole and (3) 2×200 μL of buffer A with 50 mM imidazole. Protein was eluted with 200 μL of buffer A with 250 mM imidazole. The concentration was measured by Bradford assay. Purified protein was used in conjugation reaction assays as described in example 1.

| Molecule | kcat, conjugation of IAA with Asp |
| --- | --- |
| B1 | 0.0144 s⁻¹ |

Same assay, conditions: IAA with Glu

| Molecule | kcat, conjugation of IAA with Glu |
| --- | --- |
| B1 | 0.241 s⁻¹ |

Same assay, conditions: conjugation of IAA with Asp by recombinant GH3 protein; IAA-Asp product by LC-MS

| Molecule | kcat (hrs−1) IAA-Asp |
| --- | --- |
| B2 | 1.475 h⁻¹ |
| B1 | 51.838 h⁻¹ |
| B3 | 0.000 h⁻¹ |
| B4 | 0.000 h⁻¹ |
| B5 | 0.000 h⁻¹ |

Same assay, conditions: conjugation of IAA with Glu by recombinant GH3 protein; IAA-Glu product by LC-MS

| Molecule | kcat (hrs−1) IAA-Glu |
| --- | --- |
| B2 | 1.759 h⁻¹ |
| B1 | 867.723 h⁻¹ |
| B3 | 0.000 h⁻¹ |
| B4 | 0.000 h⁻¹ |
| B5 | 0.000 h⁻¹ |

Same assay, conditions: result in words

| Molecule | Conjugation of Glu to IAA | IAA conjugation activity with Asp or Glu |
| --- | --- | --- |
| B6 | can also conjugate Glu to IAA |  |
| B2 |  | can also conjugate IAA to Asp and Glu |
| B3 |  | IAA-inactive |
| B4 |  | IAA-inactive |
| B5 |  | IAA-inactive |

Assay: LC-MS assay of GH3 conjugation of 2,4-D with Asp or Glu
Type: biochemical
Details: conjugation of 2,4-D with Asp by recombinant GH3 protein; 2,4-D-Asp product by LC-MS; 5 mM 2,4-D substrate
Description: as §1, §2

| Molecule | kcat (hrs−1) 2,4-D-Asp |
| --- | --- |
| B2 | 0.144 h⁻¹ |
| B1 | 0.424 h⁻¹ |
| B3 | 0.000 h⁻¹ |
| B4 | 0.000 h⁻¹ |
| B5 | 0.000 h⁻¹ |

Same assay, conditions: conjugation of 2,4-D with Glu by recombinant GH3 protein; 2,4-D-Glu product by LC-MS; 5 mM 2,4-D substrate

| Molecule | kcat (hrs−1) 2,4-D-Glu |
| --- | --- |
| B2 | 0.739 h⁻¹ |
| B1 | 0.988 h⁻¹ |
| B3 | 0.000 h⁻¹ |
| B4 | 0.000 h⁻¹ |
| B5 | 0.000 h⁻¹ |
